Blank lines part the entries; values can stand above or below the binder they belong to.
Legend:
[1] = biological target: T1, human Tim-3-Fc (R&D Systems) (human, UniProt Q8TDQ0 22-130); experiment: ELISA, plate-coated human Tim-3-Fc
T1 construct: Bought reagent; Biotinylated in the phosphatidylserine assay, ruthenylated (sulfo-tag) in the galectin-9 assay, plain and plate-coated in the ELISA and the CEACAM1 assay; also called hTIM-3-Fc; hTIM-3-Fc Biotin; not shown: Fc part of the bought fusion protein
T1 sequence: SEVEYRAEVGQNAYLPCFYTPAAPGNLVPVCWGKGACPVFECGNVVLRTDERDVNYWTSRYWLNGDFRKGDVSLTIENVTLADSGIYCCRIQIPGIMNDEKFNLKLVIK

[2] = biological target: T2, human Tim-3, full-length, on cells (human, UniProt Q8TDQ0 22-301); experiment: flow cytometry, A488-labelled antibody on Tim-3 DO11.10 cells
T2 construct: whole, on cells; also called cell surface Tim-3
T2 sequence (looked up): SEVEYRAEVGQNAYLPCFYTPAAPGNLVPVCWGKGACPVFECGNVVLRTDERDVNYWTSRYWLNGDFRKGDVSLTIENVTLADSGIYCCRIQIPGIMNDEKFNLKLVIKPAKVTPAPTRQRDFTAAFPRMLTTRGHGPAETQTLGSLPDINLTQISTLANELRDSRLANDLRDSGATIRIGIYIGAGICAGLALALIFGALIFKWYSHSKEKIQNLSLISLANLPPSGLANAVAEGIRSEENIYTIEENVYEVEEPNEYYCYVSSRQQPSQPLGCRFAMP

[3] = biological target: T1, human Tim-3-Fc (R&D Systems); experiment: MSD blocking assay, galectin-9-biotin on streptavidin plate as competitor, ruthenylated Tim-3-Fc
[4] = biological target: T1, human Tim-3-Fc (R&D Systems); experiment: flow cytometry, block of hTIM-3-Fc Biotin binding to phosphatidylserine on camptothecin-treated DO11.10 cells
[5] = biological target: T3, human Tim-3-IgV-Fc single arm antigen (SAG) (human); experiment: SPR, Biacore T100, antibody captured on Human Fab Binder, Tim-3 SAG as analyte, 1:1 Langmuir with mass transport
T3 construct: the SAG construct itself is not described further; also called Tim-3 SAG; not shown: Fc part of the antigen arm, any linker to it, and the second antigen-free Fc arm

hTim-3-IgV-FLAG = biological target: T4, hTim-3-IgV-FLAG (human, UniProt Q8TDQ0 22-130, glycosylation at Asn99 (density seen in the crystal structure)); experiment: SPR, Biacore T200, Fab captured, hTim-3-IgV-FLAG as analyte, 25 C, 1:1 binding
T4 construct: Purified from 293HEK supernatant on anti-FLAG resin; also called hTim-3-FLAG; not shown: FLAG tag
T4 sequence: T1 sequence

[6] = biological target: T5, human PD-L1-Fc fusion protein (human, UniProt Q9NZQ7 19-239); experiment: ELISA, plate-coated human PD-L1-Fc
T5 construct: also called human PD-L1-Fc (R&D Systems); biotinylated PD-L1-Fc fusion protein; not shown: Fc part

[7] = biological target: T5, human PD-L1-Fc fusion protein; experiment: blocking ELISA, B7-1-Fc on plate as competitor, biotinylated PD-L1-Fc
[8] = biological target: T5, human PD-L1-Fc fusion protein; experiment: blocking ELISA, PD-1-Fc on plate as competitor, biotinylated PD-L1-Fc
[9] = biological target: T6, cell surface PD-L1 on MDA-MB231 cells (human, UniProt Q9NZQ7 19-290); experiment: flow cytometry, Antibody B-biotin on MDA-MB231 cells, streptavidin-PE
T6 construct: Endogenous PD-L1 of a PD-L1-positive human breast adenocarcinoma cell line; also called cell surface expressed human PD-L1

[10] = biological target: T5, human PD-L1-Fc fusion protein; experiment: SPR, Biacore, Antibody B immobilized, PD-L1-Fc as analyte, 37 C, 1:1 model
[11] = biological target: T7, cynomolgus monkey PD-L1-Fc fusion protein (cynomolgus monkey, UniProt G7PSE7 19-238); experiment: SPR, Biacore, Antibody B immobilized, cyno PD-L1-Fc as analyte, 37 C, 1:1 model
T7 construct: also called Cyno PD-L1; not shown: Fc part
T7 sequence (G7PSE7 entry or part of it): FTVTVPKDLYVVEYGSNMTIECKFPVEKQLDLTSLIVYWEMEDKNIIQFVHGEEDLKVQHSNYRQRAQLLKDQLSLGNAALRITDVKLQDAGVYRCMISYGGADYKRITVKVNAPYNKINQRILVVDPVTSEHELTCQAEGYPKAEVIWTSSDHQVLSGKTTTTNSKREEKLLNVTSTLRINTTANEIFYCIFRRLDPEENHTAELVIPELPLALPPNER

T5 sequence (Q9NZQ7 19-239 limits assumed): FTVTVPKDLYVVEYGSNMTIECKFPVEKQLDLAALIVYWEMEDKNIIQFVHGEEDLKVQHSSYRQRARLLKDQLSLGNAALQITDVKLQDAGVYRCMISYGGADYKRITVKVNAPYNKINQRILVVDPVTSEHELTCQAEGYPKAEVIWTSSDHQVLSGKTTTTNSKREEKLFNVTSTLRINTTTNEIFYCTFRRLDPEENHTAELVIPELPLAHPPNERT
T6 sequence (Q9NZQ7 19-290 limits assumed): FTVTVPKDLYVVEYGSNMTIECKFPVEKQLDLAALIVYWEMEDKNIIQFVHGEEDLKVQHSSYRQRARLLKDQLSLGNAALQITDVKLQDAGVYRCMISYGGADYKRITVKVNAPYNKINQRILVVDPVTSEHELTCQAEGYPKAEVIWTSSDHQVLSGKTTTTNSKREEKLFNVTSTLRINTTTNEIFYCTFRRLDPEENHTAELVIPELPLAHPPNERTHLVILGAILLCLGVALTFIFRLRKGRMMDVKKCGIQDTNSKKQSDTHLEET

- EC50 [1]: 0.0207 nM
- EC50 [2]: 0.09 nM
- IC50 [3]: 5.6 nM
- IC50 [4]: 0.32 nM
- Kd [5]: 0.398 nM
- koff [5]: 0.000927 s⁻¹
- kon [5]: 2.33e+06 M⁻¹ s⁻¹
B1: Antibody A (anti-Tim-3 Antibody) (antibody, human IgG1, kappa, V domains shown)
VH: EVQLLESGGGLVQPGGSLRLSCAASGFTFSSYYMSWVRQAPGKGLEWVSAISGSGGSTYYADSVKGRFTISRDNSKNTLYLQMNSLRAEDTAVYYCARYARTAFDLWGQGTLVTVSS
VL: DIVMTQSPSSLSASVGDGVTITCQASQDIYNYLNWYQQKPGKAPKLLIYAASSLQSGVPSRFSGSGSGTDFTLTISSLQPEDFATYYCQQANSFPPTFGQGTKLEIKR
notes: Full IgG; also called anti-human Tim-3 antibody

- Kd (hTim-3-IgV-FLAG): 7.92 nM
- koff (hTim-3-IgV-FLAG): 0.00286 s⁻¹
- kon (hTim-3-IgV-FLAG): 362000 M⁻¹ s⁻¹
B2: Antibody A-Fab (Fab, V domains shown)
VH: B1 VH
VL: B1 VL
notes: Made by clipping Antibody A with immobilized papain; also called Fab for Antibody A

- EC50 [6]: 0.11 nM
- IC50 [7]: 2.4 nM
- IC50 [8]: 0.95 nM
- EC50 [9]: 0.14 nM
- Kd [10]: 0.082 nM
- koff [10]: 0.000114 s⁻¹
- kon [10]: 1.4e+06 M⁻¹ s⁻¹
- Kd [11]: 0.122 nM
- koff [11]: 0.000184 s⁻¹
- kon [11]: 1.51e+06 M⁻¹ s⁻¹
B3: Antibody B (Anti-PD-L1 Antibody) (antibody, human IgG1, lambda, V domains shown)
VH: QVQLVQSGAEVKKPGSSVKVSCKASGGTFSSYAISWVRQAPGQGLEWMGGIIPIFGTANYAQKFQGRVTITADKSTSTAYMELSSLRSEDTAVYYCARSPDYSPYYYYGMDVWGQGTTVTVSS
VL: QSVLTQPPSASGTPGQRVTISCSGSSSNIGSNTVNWYQQLPGTAPKLLIYGNSNRPSGVPDRFSGSKSGTSASLAISGLQSEDEADYYCQSYDSSLSGSVFGGGIKLTVLG
notes: Full IgG; also called Lilly PD-L1 antibody Antibody B; Antibody B-biotin

— patent US20200024352A1 (Eli Lilly, published 2020)
